The values that follow come from paper PMC3084267, “Antibody Engineering Using Phage Display with a Coiled-Coil Heterodimeric Fv Antibody Fragment” (PLoS ONE, 2011).

B1: X96 scFv (VH-CDR3 mutations of X65 in the X72 framework) (scFv, V domains shown)
VH: EVQLVQSGGGVVQPGGSLRLSCAASGYTFTNYGMNWVRQAPGKGLEWVGWINTYTGEPTYAADFKRRFTFSLDTSKSTAYLQMNSLRAEDTAVYYCAKYPYYYGRSHWYFDVWGQGTLVTVSS
VL: DIQMTQSPSSLSASVGDRVTITCSASQDISNYLNWYQQKPGKAPKVLIYFTSSLHSGVPSRFSGSGSGTDFTLTISSLQPEDFATYYCQQYSTVPWTFGQGTKVEIK
notes: as the VH of m7 (X72 framework) with the VH-CDR3 changes of X65; scFv linker; VL as in m7; likely as the VL of m4; source: Pichia pastoris X33 (pPIC6 alpha), culture supernatant, purified (Ni-NTA)
B2: X97 scFv (VH-CDR3 mutations of X65 in the X76 framework) (scFv, V domains shown)
VH: EVQLVQSGGGVVQPGGSLRLSCAASGYTFTNYGMNWIRQAPGKGLEWVGWINTYTGEPTYAADFKRRVTFSLDTSKSTAYLQLNSLRAEDTAVYYCAKYPYYYGRSHWYFDVWGQGTLVTVSS
VL: DIQMTQSPSSLSASVGDRVTITCSASQDISNYLNWYQQKPGKAPKVLIYFTSSLHSGVPSRFSGSGSGTDFTLTISSLQPEDFATYYCQQYSTVPWTFGQGTKVEIK
notes: as the VH of m8 (X76 framework) with the VH-CDR3 changes of X65; scFv linker; VL as in m8; likely as the VL of m4; source: Pichia pastoris X33 (pPIC6 alpha), culture supernatant, purified (Ni-NTA)
B3: X76 scFv (humanization lead) (scFv, V domains shown)
VH: EVQLVQSGGGVVQPGGSLRLSCAASGYTFTNYGMNWIRQAPGKGLEWVGWINTYTGEPTYAADFKRRVTFSLDTSKSTAYLQLNSLRAEDTAVYYCAKYPHYYGSSHWYFDVWGQGTLVTVSS
VL: DIQMTQSPSSLSASVGDRVTITCSASQDISNYLNWYQQKPGKAPKVLIYFTSSLHSGVPSRFSGSGSGTDFTLTISSLQPEDFATYYCQQYSTVPWTFGQGTKVEIK
notes: as the VH of m4 (WT) with the stated framework changes (Kabat numbering); scFv linker; VL paired with the VH humanization library; likely as the VL of m4; Selected as ccFv on phage, converted to scFv; source: Pichia pastoris X33 (pPIC6 alpha), culture supernatant, purified (Ni-NTA)
B4: X65 scFv (VH-CDR3 variant H97Y, S100aR) (scFv, V domains shown)
VH: EVQLVESGGGLVQPGGSLRLSCAASGYTFTNYGMNWVRQAPGKGLEWVGWINTYTGEPTYAADFKRRFTFSLDTSKSTAYLQMNSLRAEDTAVYYCAKYPYYYGRSHWYFDVWGQGTLVTVSS
VL: DIQMTQSPSSLSASVGDRVTITCSASQDISNYLNWYQQKPGKAPKVLIYFTSSLHSGVPSRFSGSGSGTDFTLTISSLQPEDFATYYCQQYSTVPWTFGQGTKVEIK
notes: as the VH of m4 (WT framework) with the stated VH-CDR3 changes; scFv linker; Converted to scFv; source: Pichia pastoris X33 (pPIC6 alpha), culture supernatant, purified (Ni-NTA)
B5: X78 scFv (humanization lead) (scFv, V domains shown)
VH: EVQLVQSGGGVVQPGGTLRLTCAASGYTFTNYGMNWVRQAPGKGLEWVGWINTYTGEPTYAADFKRRVTFSLDTSKSTAYLQMNSLRAEDTAVYYCAKYPHYYGSSHWYFDVWGQGTLVTVSS
VL: DIQMTQSPSSLSASVGDRVTITCSASQDISNYLNWYQQKPGKAPKVLIYFTSSLHSGVPSRFSGSGSGTDFTLTISSLQPEDFATYYCQQYSTVPWTFGQGTKVEIK
notes: as for B3
B6: X63 scFv (VH-CDR3 variant H97Y, S100aT) (scFv, V domains shown)
VH: EVQLVESGGGLVQPGGSLRLSCAASGYTFTNYGMNWVRQAPGKGLEWVGWINTYTGEPTYAADFKRRFTFSLDTSKSTAYLQMNSLRAEDTAVYYCAKYPYYYGTSHWYFDVWGQGTLVTVSS
VL: DIQMTQSPSSLSASVGDRVTITCSASQDISNYLNWYQQKPGKAPKVLIYFTSSLHSGVPSRFSGSGSGTDFTLTISSLQPEDFATYYCQQYSTVPWTFGQGTKVEIK
notes: as the VH of m4 (WT framework) with the stated VH-CDR3 changes; scFv linker; Selected as ccFv on phage, converted to scFv; source: Pichia pastoris X33 (pPIC6 alpha), culture supernatant, purified (Ni-NTA)
B7: X64 scFv (VH-CDR3 variant S100aR) (scFv, V domains shown)
VH: EVQLVESGGGLVQPGGSLRLSCAASGYTFTNYGMNWVRQAPGKGLEWVGWINTYTGEPTYAADFKRRFTFSLDTSKSTAYLQMNSLRAEDTAVYYCAKYPHYYGRSHWYFDVWGQGTLVTVSS
VL: DIQMTQSPSSLSASVGDRVTITCSASQDISNYLNWYQQKPGKAPKVLIYFTSSLHSGVPSRFSGSGSGTDFTLTISSLQPEDFATYYCQQYSTVPWTFGQGTKVEIK
notes: as the VH of m4 (WT framework) with the stated VH-CDR3 change; scFv linker; Selected as ccFv on phage, converted to scFv; source: Pichia pastoris X33 (pPIC6 alpha), culture supernatant, purified (Ni-NTA)

In the first experiment the target is T1, recombinant human VEGF (R&D Systems, 293-VE/CF) (Homo sapiens, UniProt P15692-4).
T1 construct: recombinant human VEGF, R&D Systems 293-VE/CF; also called VEGF antigen; source: bought: R&D Systems (293-VE/CF)
T1 sequence (P15692 whole entry): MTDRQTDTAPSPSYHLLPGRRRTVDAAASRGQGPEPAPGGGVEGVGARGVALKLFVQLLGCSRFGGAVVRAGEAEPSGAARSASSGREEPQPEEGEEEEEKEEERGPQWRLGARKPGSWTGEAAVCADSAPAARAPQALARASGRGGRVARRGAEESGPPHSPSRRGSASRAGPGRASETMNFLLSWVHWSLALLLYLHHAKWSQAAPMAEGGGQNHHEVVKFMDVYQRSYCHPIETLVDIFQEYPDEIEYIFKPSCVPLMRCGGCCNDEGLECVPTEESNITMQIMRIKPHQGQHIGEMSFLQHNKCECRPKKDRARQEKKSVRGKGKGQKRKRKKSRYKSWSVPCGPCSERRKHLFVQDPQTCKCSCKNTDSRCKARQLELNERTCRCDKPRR
Kind of experiment: SPR; Biacore, 35°C; VEGF amine-coupled to a CM5 chip (about 300 RU); monomeric scFv (after Superdex 75) in PBS at 10 to 160 nM; global fit to 1:1 Langmuir model. The settings on record: both partners purified.
Consider B1, for which the Kd came to 0.11 nM.

On to B2, for which the Kd was 0.12 nM.

The target of the next experiment is T1, recombinant human VEGF (R&D Systems, …). The experiment can be described thus: SPR; Biacore, 25°C; VEGF amine-coupled to a CM5 chip (about 300 RU); monomeric scFv (after Superdex 75) in PBS at 10, 20, 40, 80, 160 nM, 30 µl/min, 5 min association, 10 min dissociation; global fit to 1:1 Langmuir model. Conditions: both partners purified.
Consider B3, for which the Kd was 3.1 nM.

Consider B4, for which the Kd is 1.5 nM.

With B5, the Kd was determined as 5.9 nM.

Regarding B6, the Kd was 2.2 nM.

Take B7: the Kd amounted to 5.4 nM.
